Experimental data as given in patent US20200140835.

Key:
[1] = system: Helical-III domain of SpCas9, supplied in trans
[2] = system: SpCas9 delta-Helical-III deletion F498-Q712 replaced by GGS linker (Streptococcus pyogenes); assay: cleavage_in_vitro; conditions: Helical-III in trans rescues ~100-fold; 5 mM MgCl2

| Substance | cleavage with a PAM-distal mismatched target [1] | on-target cleavage rate (radiolabeled DNA cleavage assay) [1] | activity (fold decrease vs WT) [2] |
| --- | --- | --- | --- |
| SpCas9ΔHelical-III (ΔF498-Q712 with GGS linker) | had no effect on cleavage with a PAM-distal mismatched target | rescued the on-target cleavage rate by ˜100-fold in a concentration-dependent manner | – |
| lambda1-targeting sgRNA ; lambda1 on-target DNA | – | – | 1000 |
